Assay: soluble on expression in E. coli; label from the status in PepcDB or PDB records

Question: For “MAHHHHHHMLPLDSPPVTQLAKEFVNFINEACTPFHAVEVLSSWLSNAGYQRLKEGETWPKLTNGYRYFITRNDSSLVAFSVGGRFVAENGLKIVGAHTDSPNLALKPRTLAGRSDYQGVAVQCYGGGLWHTWFDRDLTVAGRVIISSSKLVKRLVKVNKPIMRIPTLAIHLQSVEERNAFGPNKEKHLVPVIATTLSHTPNGDVSEHHNSQLLILLAESLGCRPSEIVDYDLSVVDTQDAVVGGANDEFIYAPRLDNLISCFCGVKALLESDKTLEEENMIRMVCLFDNEEVGSSTSQGAGGSLVPDVIEYISASGGLRAQLVANSFLMSVDGAHAVHPNYQDKHEEKHRPLIHRGPVIKYNANMRYATNGVTAAIVKAIAKRASVPIQEFCVKNDSPCGSTIGPILSSLSGIQTVDLGNPMLSMHSIREMCGTADLLHLKNLLEAFFNHYTRDMVTS”, which “soluble on expression in E. coli” value is on record?
Answer: not soluble

Question: For “MAHHHHHHMLPSVMDRYESYDFGKELLSLLKTASSTPGAHMGVFTGMGLLLAKYRPEKLLEHVNMHAKKINTHKMIAACEEYHLWLVLRVLHVNNEDWLAAATTMMHHHVDAWDHDVFKTVVSHLGSSDLVYNSISFYIQTNPQLLDDFLTSMFKTLDPERVLLEVKKLAPVHFIRQYLESAQERNSRRVNEAINKLYMEEEDFTALRDSVERFDNFDSAELSAELEKMELFEFRKIALFLHRRNKRFTHAVAVAKENKLYQDAIETAAESANPQIVEDLLDFFVVDHPDCFVACLYTCYDYLTPQVVMEKAWLNKRTDLAMPYFIQVIQDYTTKLSRMEKSMMDAQQLAKEAARRAGPLHTGANDPLMIQAGPANPMGGAMPMPMPMPMPMPMMGGVPPGNYGPPPQFDNRRPY”, which “soluble on expression in E. coli” value is on record?
Answer: not soluble

Question: With “MAHHHHHHMLSIRKCNIYDLLSMQQCNSINLPENYNLRYYFYHALSWPYLSQIAEDVNGKVCGYSLGKLEEDNEYKGHLTSVAVLKTYRKLKLAFYLILQTHQHLKDIYRANNICLHVRVSNNAALNLYYNLLNYKVNGIETQYYGNKENAYLMEHVFAR” as the sequence, how does the “soluble on expression in E. coli” value read?
Answer: not soluble

Question: With “MAHHHHHHMMQSKVLPTPQDVVLQGLLSLDSTVKTKTHALVSRQLDRLESYLRIKCGWSVPLSSSSTSAEAGCGSNVVRVSEYVRAFTPDGVPIVDRNGGSFNCFVCCGFGDHAMDFAPGAAKVLGKLVEHQAQHLREEDIEKTKTWGLLTSKLSPSRRAAVEEELQLLFNGVDSDAVKRKGSRTPSEASALALLRHEDNPYSTNRFANMVRKEVKMDSSPPILSRLCALEDVFLTHLEPLRRRFHAKATELALRENTPDWLRTFVFCFMYEEDDDPAAQARKEQHVRSLQRLASQYETPVTDAKTTGDGAEELPLTPAEQSKRKQAELERRAREVFAKRV” as the sequence, how does the “soluble on expression in E. coli” value read?
Answer: not soluble

Question: With “MAHHHHHHMMRQNLTSDSLITDTLRKAGVPCDVVGIVETVAGACRAIAAGLRNDGVTAAKSKNNFGDDVLSVDVMADKIISEALNSCQHVASYVSEESPSLASTAHSGKATYSVSYDPLDGSSIITSNFTVGSIFAVWPGNTPIGLTVRDMAASVVAVYGPRVVLFVGQEELGVAEFFCGADGEWKLAKRVWAGVCTPRTATVTAAGRGVKLKATVFSPGNLRAVRHLPWYKQLITMYMQEGATLRYTGGMVPDVCQIIVKGDGIYMTPASPQHKMKLRLLFEAAPMAFLIHCAGGRSTTGLTNMMNVRVVSMEQTTPIALGCARDVERYERMCRGCSKL” as the sequence, how does the “soluble on expression in E. coli” value read?
Answer: soluble

Question: Which “soluble on expression in E. coli” value does the source give for “MAHHHHHHMMSPFPPLPVYLSGLLTLHVPTRCLHFLVLTPMKTRVGLHRCCASYLRLLSQDRLQLHNPIEFIGALHFFTSLCSPLGVADFLRMEDPAAQEVVVTPWTVEGDVNYDKLIKNFGCQAIDDKLLERMERLTGKKPHHFLRRGIFFSHRDLNLILDAYEKGQPFYLYTGRGPSSESMHVGHLIPFMFTKWLQDTFHVPLVIQLTDDEKFFFKDLTMEEIDKMTTENLKDIIAFGFDPKLTFIFRDFEYVGQMYRIVARIEKAYTASQVRGCFGFKMEDNCGRWMFPAIQAAPSFSAAFPHIFPLQKGNVFCMIPQAIDQDPYFRLTRDVAPRMGYLKPAVIHSKFFPGLSGSKGKMSSSTGAAVFLTDTPKMIKDKINKHAFSGGGADKKEQLLLGGNTNVDVPVQWLRFFLEDDEELKRLQKDYMLGRIMTGDVKKVLIRQITSIVTAHQESRKKVTEADVELFTAVRVMGPAKEEAESRK” here?
Answer: not soluble

Question: With “MAHHHHHHMNESVEQLFDELISDFNKNDKIGEGNESFNIREKVGNKWTNEDILNNINKNDFSKYTEYSLSSLYITDERIHIDEDNKFQDFLNVITKASDVNNIYKWIDSYYKYDSKEELDILSPKAQKKEYIFREYLEPFHLKGLCLLRKYEKGAILKSSEKSKVDVNIVSEYIVHNTYKQIMKSFGYYLSHKIYIKAHIFHNKYGNSDHIIVLILQHFKDENFKQPLFHDRALVQIKSYSNDNKYSELTQKNLLHYAEIFKPFVSLRKLNYNFVEEFKDKIMFGI” as the sequence, how does the “soluble on expression in E. coli” value read?
Answer: soluble

Question: Which “soluble on expression in E. coli” value does the source give for “MAHHHHHHMNKNYPGRITSAPLAQQARGLSLRPGAPASFLDRAQPGGAGTGIGAQQSHHNNNLPRAPRAKPPTQLQTPAPAPPLPKEEAEEERSGAAEVAPSEVSYPEDHIYDVEDFIKLRKCQAPVPSEVMEYARAMWKEMPENMDDMENNSLRDNLFREQNASTMSKVMTDRKINNEVLGILGKVTASNLEKMKKELTDLPIRQSTKEEIDEV” here?
Answer: soluble

Question: With “MAHHHHHHMNKTNEVDDWTEWLDDDDEKREDEFHIDSTKDEAIKKKILQNNLDDIADFLDIGDNKKKKVEETENKVKPKVTEKIITLESTPLNSIKDCETLGEILAGRIRKCKAKSVALERFISIIITASESKLEDKDLLTVSRKLQEMVSQREKKKRYAQINKKKPNEVKNSIKNYEDEVDMIYGDLSYDEDDYEEEVVDEYLENF” as the sequence, how does the “soluble on expression in E. coli” value read?
Answer: soluble

Question: For “MAHHHHHHMNLIVHDLDFMKRILLNDERKWGEESAPGEGRTESSHQPKIITIVLNNTLCAHSAKFIANSDVLICADGGANRLYNLCQSLATERGAIDDEGSSLKGEEDKNTALHASHTNERSHHVSGRHTISDLFNMPVEKKEKALKRPTEIVPHIICGDFDSINAHVYSYYKNKSVIFEKCANQENTDLDKCIDVIRGYIRTNDKILILGATGNRFDHTCANISCLYKNASLNSLYLIGENNFLFLLQQGSHIIHVSPDVFCKGCGILPFGGKCTIKTEGLKYNLNDECLSFDTLISSSNEVVQREVKIFNDSPVVWSAQLI”, which “soluble on expression in E. coli” value is on record?
Answer: not soluble

Question: For “MAHHHHHHMNSKDTNELKRGAGYLKEKAIIGLTRVTGNELDRAIYKVTSHKLKAPKEKHMQRVLAATRGYSSQKTHKGRNTCEYIVSEFEKRLHTHNWIVVLKTLVTFHRLMKDGSDEVNNCIQQNRNIFCFRNIKDLSESSEGAVQSVFIRQYMYYLEERSSSQRKLGASKRMENSEFGVFLRSLDVDTLGPVFESLLVQLSALVEVQYKEAIVDNFCTMEAFQRLVNDGKLLYQILSDRAIFILDGFSGFTLQQKKDWVRRYREYTVVGERLRLLFESIANSKRMFDEPPPPLKALPGSLLESLEREVRLSSIAHEDITETLESLGITADEKTPLKATTSDGTMAIYSPVATEKALDTTETGAPPVTEPKKESGFSIDDLFVPPPVTDSHQQTSYNPSTIPQGTQMEGPLIQTEANPNMTYTFPTGVPVGQNFFGQQPTGNSLTWEAPSPAPGSMQPQSAAGIVPSWSDSSASWGRGNCGSNTVDPFKDLYASQKGGQ”, which “soluble on expression in E. coli” value is on record?
Answer: soluble

Question: For “MAHHHHHHMNWCLSRRWRFRLELLSASLLSRVHIGCHAEPRNNMSTTPAKNELASVHESIQITLSKIQEDSAKRSSQEQQLISSVASAKCLAGIFSAHSPTNDEVVRALKSAGEEEQVEAECLQRYQQFVEAKKRCFTSVEADLRSVSKVLSGVLAASEKVEEPTSGDCRAEVQENQCDGELLHLLRLWRTVVCLHDLVLGSLIKRGSDGSPCELQRFSAGEERSYVRESALRNTVADTEKMLLAIRKRWRDLTEEAEAVRATAESMTPLPFSDEATLLIADEKDEPLVASINQGLHELQQSSDRLRKKKVAVDEGAAALLEKVRNLSLQTAACRCSVEAFSQRSREAADDANSLMSAKARALQELHRKAQECASEQGLLDRDVGSYKQLCALLVEWAENEKSEAERIVAAEQEYHSLVSKERAQQEKLRCLRLSIKNLESEVRDASTEKQRIVGEVQYLSKLVSNPTVVTQVLARASEECHPEREVTALHNYLRFVQKARLERHTSHE”, which “soluble on expression in E. coli” value is on record?
Answer: not soluble

Question: Which “soluble on expression in E. coli” value does the source give for “MAHHHHHHMPLVKAETDASFVAEVAESVGGACARMNDHISVMIEEYLRRRTQQVRDDVKQELDAVRVHLERKIADAEAAKAVEEERYHKKKVQVLQAAVELQKMHANLHLQRLFHTWRRCADVRQERRRLAEEAHIHIGRLSLFHAYMQWRLFAAALRQKRLEAKEAHKRDCREQELLGQIEGYQRQLEGERAKDASLNEKLKEAFVRGMCALNREAVHVLHGSEENQDADVEAIAEILSRESHSRHRSVTPGHMDSSTLSNVHGHGVCPVHHIDAKGSFYHPCFSPGYCEYDRHSGSRAPVSSAVPPSASGPFVVSADPKSARSIDSSPPVPFRHLSKSSTTRWRM” here?
Answer: not soluble

Question: Which “soluble on expression in E. coli” value does the source give for “MAHHHHHHMPYQHIKVPEGGDKITVNKDFSLNVSDQPIIPYIEGDGTGFDITPVMIKVVDAAVEKAYGGKKKIHWMEIYAGEKATKVYGPDVWLPEETLQVLKEYVVSIKGPLTTPVGGGIRSLNVALRQELDLYVCLRPIQYFKGVPSPVREPEKTNMVIFRENSEDIYAGIEWAAESEQAKKVIKFLQEEMGVKKIRFPQTSGIGIKPVSKEGTERLVRKAIQYAIDNDRKSVTLVHKGNIMKFTEGAFRDAGYALAQKEFGAELIDGGPWMKFKNPKTGNEIVVKDSIADAFLQQILLRPAEYDVIATLNLNGDYISDALAAQVGGIGIAPGANLSDSVAMFEATHGTAPKYAGKDYVNPGSEILSAEMMLRHLGWTEAADVIISAMEKSIKQKRVTYDFARLMEGATQVSCSGFGQVLIENME” here?
Answer: soluble

Question: Which “soluble on expression in E. coli” value does the source give for “MAHHHHHHMQDEAVRAALQSGVWREKKDPKSGKTYYVNVQTRVSVWNLAKELARLQQQQKFTEEMELRKQKKLRSLAEERQAQAKKWQEEEEALMQRMAELEREKARLESEITILQGPTEVEAASLQEEQSRLLDAKQSLELIVSEELRKRRESAAELQQLQARLEALRQERQEELGMFESLRKRLEQLRQEHAEALADLQREEAVEESLREELQREERQLEDALHEEVRLKELLKMREDEVDRMKAELKAVCQRKAELQQQHQRLLEEVAESAMGAAEDTLQEPPPSSSLLLSHLQREVANRKKSLRHLMQQQRLAKEAEWMEAESAELRRFTALAEREAQRLAQFSRELSDQVRAVTPLLEAVKHDVQQLEEEMEELR” here?
Answer: soluble

Question: With “MAHHHHHHMQICPEGKGDSAASELLRFSDADGAVVREVLLDALCRVVPASLFSDAAALENVDEAELCVLLRYATEIQEQNAAFFQVMGGSEVMSRPERAATTEGRRVLQHFTRLVLARCRHLLHHHDGPPPTLLSGDAENIPFVDLQLYADHNHPEVRVHQKIGRANAQGLRYAGLQSTASTTMAELLSRLESANQRMAAGARGLRCDLLRHVAQKAALGKSKLTLEDVTRALPLLAAQMGKTSEQQVKSTYERLLTAMSTTIAVALQQPQKPACILALLEGLAGCHYTPSSYKLLEMVMLRMMMRGAFTLSDAGRCLIAMLQVVGPQKVSQSVKQAIAMRVVAAVDARSDSTAADVLAVLRALRYSCYSSFASLVCLVSKSPLMGNTANWQPSEHVRYAVLLAAAAAALETEANSELGIAVSTTARERLLLGLSPTHPPSAVPPHSPACVGEDAYQECVTACAALDVSPVPPALTAWAHADIDARPVHSLCTPALAVSTMEALEAMSLAPSRWYTAYVNYLTDTLEQMQRRPLLEDDAETAVRCLFLQRAPGAVTRLASVLLEHEVDRLDQTLTRGAVVRDDARAPPVCTFQQRSLERQTSEGETETRLLRYCAALQHASREMLSTRSAEV” as the sequence, how does the “soluble on expression in E. coli” value read?
Answer: not soluble

Source: the DeepSol protein solubility set
